According to IntAct's records for PubMed 18498651:

B1: Double-stranded RNA-binding protein Staufen homolog 1 (Homo sapiens), O95793-2 (parent)
chain: MKLGKKPMYKPVDPYSRMQSTYNYNMRGGAYPPRYFYPFPVPPLLYQVELSVGGQQFNGKGKTRQAAKHDAAAKALRILQNEPLPERLEVNGRESEEENLNKSEISQVFEIALKRNLPVNFEVARESGPPHMKNFVTKVSVGEFVGEGEGKSKKISKKNAAIAVLEELKKLPPLPAVERVKPRIKKKTKPIVKPQTSPEYGQGINPISRLAQIQQAKKEKEPEYTLLTERGLPRRREFVMQVKVGNHTAEGTGTNKKVAKRNAAENMLEILGFKVPQAQPTKPALKSEEKTPIKKPGDGRKVTFFEPGSGDENGTSNKEDEFRMPYLSHQQLPAGILPMVPEVAQAVGVSQGHHTKDFTRAAPNPAKATVTAMIARELLYGGTSPTAETILKNNISSGHVPHGPLTRPSEQLDYLSRVQGFQVEYKDFPKNNKNEFVSLINCSSQPPLISHGIGKDVESCHDMAALNILKLLSELDQQSTEMPRTGNGPMSVCGRC

Variants of: B1
Conditions: with gag_hv1h2 gag

Row | Variant | effect of a mutation on the interaction
1 | F135A | disrupting interaction
